# B1: human Sgt1, wild type (natural protein, UniProt Q9Y2Z0-2 1-333, looked up)
# chain: MAAAAAGTATSQRFFQSFSDALIDEDPQAALEELTKALEQKPDDAQYYCQRAYCHILLGNYCVAVADAKKSLELNPNNSTAMLRKGICEYHEKNYAAALETFTEGQKLDSADANFSVWIKRCQEAQNGSESEVWTHQSKIKYDWYQTESQVVITLMIKNVQKNDVNVEFSEKELSALVKLPSGEDYNLKLELLHPIIPEQSTFKVLSTKIEIKLKKPEAVRWEKLEGQGDVPTPKQFVADVKNLYPSSSPYTRNWDKLVGEIKEEEKNEKLEGDAALNRLFQQIYSDGSDEVKRAMNKSFMESGGTVLSTNWSDVGKRKVEINPPDDMEWKKY
# Experiments:
# [1] = molecular target: Hsp90 (of the ITC in Supplementary Figure 1); assay: ITC
# [2] = molecular target: human Skp1 (human) (UniProt P63208); assay: ITC
# [3] = molecular target: His6-tagged human Hsp90β (human, UniProt P08238 1-724); assay: pull-down
# Chain of His6-tagged human Hsp90β (P08238 whole entry): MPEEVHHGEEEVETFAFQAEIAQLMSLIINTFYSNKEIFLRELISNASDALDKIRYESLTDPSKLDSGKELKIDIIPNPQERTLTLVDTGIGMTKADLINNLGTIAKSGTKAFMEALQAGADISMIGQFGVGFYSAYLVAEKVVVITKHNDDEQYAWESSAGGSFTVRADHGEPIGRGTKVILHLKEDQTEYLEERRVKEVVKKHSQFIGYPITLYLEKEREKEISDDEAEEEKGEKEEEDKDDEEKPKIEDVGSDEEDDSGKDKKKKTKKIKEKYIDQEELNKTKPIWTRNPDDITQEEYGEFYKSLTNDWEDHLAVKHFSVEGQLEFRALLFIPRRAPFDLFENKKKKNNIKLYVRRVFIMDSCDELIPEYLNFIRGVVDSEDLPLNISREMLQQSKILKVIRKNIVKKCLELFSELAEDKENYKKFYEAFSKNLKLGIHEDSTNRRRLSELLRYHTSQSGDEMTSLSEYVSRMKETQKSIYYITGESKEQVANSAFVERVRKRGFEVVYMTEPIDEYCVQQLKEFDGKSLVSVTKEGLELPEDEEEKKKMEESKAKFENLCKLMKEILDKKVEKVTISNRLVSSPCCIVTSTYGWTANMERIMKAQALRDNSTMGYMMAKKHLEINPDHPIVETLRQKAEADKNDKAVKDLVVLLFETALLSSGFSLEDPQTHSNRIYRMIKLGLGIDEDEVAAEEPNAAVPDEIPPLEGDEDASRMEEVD
molecule,measurement,setting,value
Sgt1 (of the ITC in Supplementary Figure 1) (natural protein),stoichiometry N,[1],1
B1,Kd,[2],1.64 µM
same,binding result,[3],binds

# Reference: paper PMC2556094 (The EMBO Journal, 2008)
